Target: fibronectin receptors (alpha5beta1) on the adherent CHO cell line (Chinese hamster (endogenous in CHO))
Experiment: radioligand binding

- Kd: 95 nM
Substance: human plasma fibronectin (ligand; labeled with 125Iodine (modified Chloramine-T procedure) in the binding assays)

Source: article PMC2119780
